Laboratory results: PMC9606039, “Molecular analysis of a public cross-neutralizing antibody response to SARS-CoV-2” (Cell Reports, 2022)

Target: receptor-binding domain (RBD) (residues 319-541) of the SARS-CoV-2 spike (S) protein (SARS-CoV-2, ancestral Wuhan-Hu-1 …, UniProt P0DTC2)

B1: XG005 (antibody, V domains shown)
VH: QVTLRESGPTLVKPKQTLTLTCTFSGFSLSTPGGGVGWIRQPPGKALEWLALIYWDDDKRYSPSLKSSLTITKDTSKNQVVLTMTNMDPVDTATYYCARLTAADTIFDCWGQGTLVTVSS
VL: QSALTQPASVSGSPGLSITISCTATSSDVGAYNYVSWYQQHPGQAPKLMIYDVSKRPSGVSNRFSGSKSANTASLTISGLQAEDEADYYCSSYTTTSVVFGGGTKLTVL
  binding result: binds

B2: XGv265 (antibody, V domains shown)
VH: QITLKESGPTLVKPTQTLTLTCNFSGFSLNTYGVGVGWIRQPPGKALEWLALIYWDGDERYGPFFKNKVTIAKDTSKNQVVLTMTNMDPVDTATYYCARHLIPTIFDYWGQGTLVTVSS
VL: QSALTQPASVSGSPGQSITISCTGTSSDVGGSNYVSWYQHHPDRAPKLLIYEVTNRPSGVSNRFSGSKSANTASLTISGLQAEDEADYYCSSYTTTSTHILFGGGTKLTV
  binding result: binds
